Measurements reported in patent US20170073382 (Nomadogen Biotechnologies Inc., published 2017).

Target: T1, synthetic TAL effector (RVG-LAMP-2B-NLS-TALE) (Artificial Sequence, UniProt P14727 SEQ:1-766)
T1 chain: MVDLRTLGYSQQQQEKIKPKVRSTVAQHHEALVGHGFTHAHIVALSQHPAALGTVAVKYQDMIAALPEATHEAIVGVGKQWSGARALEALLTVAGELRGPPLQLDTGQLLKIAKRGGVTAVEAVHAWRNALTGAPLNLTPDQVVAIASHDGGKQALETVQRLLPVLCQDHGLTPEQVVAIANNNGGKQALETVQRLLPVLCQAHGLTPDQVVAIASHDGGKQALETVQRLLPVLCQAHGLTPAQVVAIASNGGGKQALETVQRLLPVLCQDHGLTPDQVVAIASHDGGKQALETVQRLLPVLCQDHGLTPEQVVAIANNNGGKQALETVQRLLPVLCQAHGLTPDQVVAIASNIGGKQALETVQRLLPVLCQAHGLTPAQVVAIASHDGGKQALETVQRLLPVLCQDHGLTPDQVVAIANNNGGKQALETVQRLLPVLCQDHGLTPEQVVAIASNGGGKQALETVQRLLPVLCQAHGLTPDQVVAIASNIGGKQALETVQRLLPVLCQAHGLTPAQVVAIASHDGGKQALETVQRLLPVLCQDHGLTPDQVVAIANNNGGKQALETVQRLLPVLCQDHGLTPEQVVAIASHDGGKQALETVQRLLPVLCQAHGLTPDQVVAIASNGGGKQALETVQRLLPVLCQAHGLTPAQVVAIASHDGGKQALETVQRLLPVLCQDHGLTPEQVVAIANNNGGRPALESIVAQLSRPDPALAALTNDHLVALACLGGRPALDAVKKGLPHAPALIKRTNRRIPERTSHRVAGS
Assay: cell_activity
Settings: tags: fusion to C-terminus of RVG-LAMP-2B-NLS, expressed from pcDNA3.0 in HEK-293

B1: gfaABC1D-NeuroD1 plasmid with TAL effector binding site (dsDNA)
DNA 1: TCGCTCGACGTACGCTCG
DNA 2: CGAGCGTACGTCGAGCGA
Q: For B1, which binding signal is on record?
A: The binding signal was 3 fold.
